# Experimental data from the nanobody polyreactivity screen of Harvey et al. (2022).
# Experiment: yeast display, Sf9 membrane polyspecificity reagent, FACS + sequencing; frameworks hold sequencing errors
# Procedure, shortened: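 Sorting gates, low and high (top ~1%), were placed on anti-HA fluorescence to track expression and on streptavidin fluorescence to track reagent binding. A clone's polyreactivity label is taken from the gate it came out of. The reagent was 10% biotinylated, detergent-solubilized Sf9 membrane, applied for 1 hour at 4 °C to galactose-induced yeast display cells.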
sequence,measurement,value
QVQLVETGGGLVQAGGSLRLSCAASGIIFFYYGMGWYRQAPGKERELVARISSGGSTNYADSVKGRFTISRDNAKNTVYLHMNSLKQEDTAVYYCAARISTRYGYWGPGTQVTVSS,polyreactivity (PSR sort gate),low polyreactivity
QVQLVETGGGLVQAGGSLRLSCAASGIIIQNNAMGWYRQAPGTERELVAAISSSGGRTYYADSVKGRFTISRDNAKNTVYLQMNSLKPEDTEVYYCNKRWRGSYDYWGQGTQVTVSS,polyreactivity (PSR sort gate),high polyreactivity
QVQLVETGGGLVQAGGSLRLSCAASGITFASYDMGWYRQAPGKEWELVAAISSGGDTTYADSVKGRFTLSRDNAKNTVSLQMNSLKPEDTAVYYCNKDIDFAVSAYESSPRTMYYWGQGTQVTVSS,polyreactivity (PSR sort gate),low polyreactivity
QVQLVETGGGLVQAGGSLRLSCAASGITLPKYAMGWYRQAPGKERELVAAISRSSGRTYYADSVKGRFTISRDNAKNTVYLQMNSLKPEDTAVYYCAASHGGYITRYNYWGQGTQVTVSS,polyreactivity (PSR sort gate),high polyreactivity
QVQLVETGGGLVQAGGSLRLSCAASGLIFYSYTMGWYRQAPGKERELVAVISRSGTSTYYADSVKGRFTISRDNAKNTVYLQMNSLKPEDTAVYYCAARAYVSHYGVSNFGYYYWGQGTQVTVSS,polyreactivity (PSR sort gate),high polyreactivity
QVQLVETGGGLVQAGGSLRLSCAASGNTFHSNAMGCYSQAPGKERELVAAITPSDGDPYYADSVKGRFTISRDNAKNTVYLQMNSLKPEDTAVYYCAAEDDPGEYEYWGQGTQVTVSS,polyreactivity (PSR sort gate),low polyreactivity
QVQLVETGGGLVQAGGSLRLSCAASGNTFVLYAMGWYRQAPGKERELVAAIRRGVRTYADSVKGRFTISRDNAKNTFYLQMNSLIPDDTAVYYCAAYYVFLDNDYWGHGTQVTVSS,polyreactivity (PSR sort gate),high polyreactivity
QVQLVETGGGLVQAGGSLRLSCAASGRIFSNYVMGLYRQAPVKERELVAAISGSGGRTYYADSVKGRFTISRDNAKNTVYVQMNSRTPEDTAVYYCAARRSERDRYGGYYYWGQGTQVTVSS,polyreactivity (PSR sort gate),high polyreactivity
QVQLVETGGGLVQAGGSLRLSCAASGRIIRYNAMGWYSQAPGKERELVAAISTRGGNTYYADSVKGRFTISRDNAKNTVYLQMNSLKPEDTAVYYCNARSSLPYNYWGQGTQVTVSS,polyreactivity (PSR sort gate),high polyreactivity
QVQLVETGGGLVQAGGSLRLSCAASGRISQNAMGWYRQAPGKERELVAAITFSGGSTYYADSVKGRFTISRDNAKNTVYIQMNSLKAEDTAVYYCNVRQYTDGMKYDYWGQGTQVTVSA,polyreactivity (PSR sort gate),low polyreactivity
QVQLVETGGGLVQAGGSLRLSCAASGRISYDYAMGWYRPPPGKERELVAAITTGGNTYYADSVKGRFTISRDNAKNTVYLQLNRLKPEDTAVYYCSVRGPYVRYNRYNYVYWGQGTQVTVSS,polyreactivity (PSR sort gate),low polyreactivity
QVQLVETGGGLVQAGGSLRLSCAASGRIYYVYDMGWYRQAPGKERELVAAISWSGGSTSYADSVKGRFTISRDNAKYTVYLQMNSLKPDDTAVYYCAATSAIGWGYDYWGQGTQVTVSS,polyreactivity (PSR sort gate),low polyreactivity
QVQLVETGGGLVQAGGSLRLSCAASGRNFNWNTMGWYRQAPRKEREFDAAISGSGGSTYYADSVKGRFTISRDNAKNTVYLQMISLKPEDTAVYYCAKRLYYSYYDEMDYWGQGTQVTVSS,polyreactivity (PSR sort gate),high polyreactivity
QVQLVETGGGLVQAGGSLRLSCAASGRTFDGNVMGWYRQEPGKERELGAAISDRGTRTYYADSVKGRFTISRDNAKNTVYLQMNSLKPEDTAVYYCATRVYFSPYRYDYWGQGTQGTVSS,polyreactivity (PSR sort gate),high polyreactivity
QVQLVETGGGLVQAGGSLRLSCAASGRTFRAYAMGWYRQAPGKEMELVAAITSGGSTKYADSVNGRFTISRDNAKNTVYLQMTRLKPEDTAVYYCAATLALESYIYDYWGQGTQVTVSS,polyreactivity (PSR sort gate),high polyreactivity
QVQLVETGGGLVQAGGSLRLSCAASGRTFRYNAMGWYRQAPGKERELVAAITGSGGSTYYADSVKGRFTISRDNAKNTVYLQMNSLKPEDTAVYYCARAYSYRLYPYGSWGQGTQVTVSS,polyreactivity (PSR sort gate),high polyreactivity
QVQLVETGGGLVQAGGSLRLSCAASGRTFWYYAMGWYRQAPVTERELVAYADSVKGRFTISRDNAKNTVYLQMNSLKPEDTAVYYCAVGPVVWFSSSLYYTDYYYWGQGTEVTVSS,polyreactivity (PSR sort gate),low polyreactivity
QVQLVETGGGLVQAGGSLRLSCAASGRTFYGNAMGWYRQAPGKEREFVAAIRGSGGSTYYADSVKGRFTISRDNAKNTVYLQMNSLKPEDTAVSYCNRGWAYGSAYYAKYYYWGQGTQVTVSS,polyreactivity (PSR sort gate),high polyreactivity
QVQLVETGGGLVQAGGSLRLSCAASGRTYAFYAMGWYRQAPGKERELVASISSSGDRPYYADSVKGRFTISRDNAKNTVFLQLNSLKPEDTAVYYCAARWRYTYYYWGQGTQVTVSS,polyreactivity (PSR sort gate),high polyreactivity
QVQLVETGGGLVQAGGSLRLSCAASGSIFEYNAMGWYRQAPGKERELVAAISWSSGTTYYADSVKGRFTISRDNAKNSVYLQMNSLKPEDNAVYYCNAGRYGKDSVYWGQVTQVTVSS,polyreactivity (PSR sort gate),low polyreactivity
QVQLVETGGGLVQAGGSLRLSCAASGSIFGAYAMGWYRQAPGKERELVAAITWTAGSTFYADSVKGRFTISRDNAKNTVYLQMNSLKPEDTAVYYCAAEYYTETQWSRYYRYYYWGQGTQVTVSS,polyreactivity (PSR sort gate),low polyreactivity
QVQLVETGGGLVQAGGSLRLSCAASGSIFLKYAMGWYRQAPGKERELVAAISWSGGRTYYADSVKGRFTISRDNAKNTVYLQMNSLIPEDTAVYYCAAAGRVNNGYRGYGYWGQGTQVTVSS,polyreactivity (PSR sort gate),high polyreactivity
QVQLVETGGGLVQAGGSLRLSCAASGSIFPSYAMGWYRPAPAKERELVAAISRSAGSTYYADSVKGRFTISRDNSKNTVYLQMNSLKPEDTAVYYCADDGYSSRYRYDYWGQGTQVTVSS,polyreactivity (PSR sort gate),low polyreactivity
QVQLVETGGGLVQAGGSLRLSCAASGSIFSIYAMGWYRQAPGKERELVAAISWSGGSTYYADSVKGRFTISRDNAKNTVYLQMNSLKPEDTAVYYCLRQDYHYHPYDYWGQGTQVTVSS,polyreactivity (PSR sort gate),low polyreactivity
QVQLVETGGGLVQAGGSLRLSCAASGSIFTYYAMGWSRQAPGKERELVAAITSGGSTYYADSVKGRFTISRDNAKNTVYLQMNSLKPEDTAVYYCNAVTFYRYYTGKYDYWGQGTQVTVSS,polyreactivity (PSR sort gate),high polyreactivity
QVQLVETGGGLVQAGGSLRLSCAASGSIFVLYAMGWYRQAPGKEREFVAAISSSGGSTYADSVKGRFTISRDNAKNTVYLQMNSLKPEDTAVYYCARDVYLSDPPRDYDYWGQGTQVTVSS,polyreactivity (PSR sort gate),low polyreactivity
QVQLVETGGGLVQAGGSLRLSCAASGSIFVRNAMGWYRQAPGKERELVAAINRDGGRTYYADSVKGRFTISRDNAKNTVYLQMNSLKPEDTAVYYCNAGGVSFEYGYWGQGTQVTVSS,polyreactivity (PSR sort gate),high polyreactivity
QVQLVETGGGLVQAGGSLRLSCAASGSIFYGYAMGWYSQSHGQEREFVAAITFSATSTYYADSVKGRFTISRDNAKNPVYLQMNSLKPEDTAVYYCAAVIGDWQYQYYYWGQGTLVTVSS,polyreactivity (PSR sort gate),low polyreactivity
QVQLVETGGGLVQAGGSLRLSCAASGSILYYKPMGWYRQAPGKERELVASISLTGGSTTYADSVKGRFTISRDNAKNTVYLQMNSLKPEDTAVYYCNATQYPAADRSTNNYGGGFDSWGQGTQVTVSS,polyreactivity (PSR sort gate),low polyreactivity
QVQLVETGGGLVQAGGSLRLSCAASGSISGFIDMGWYRQAPGKERELVAAISYSGGRTYYADSVKGLFTISRDNAKNTVFLQMNSLKPEDTAVYYCAADKFIYSKYTVIRDDYWGQGTQVTVSS,polyreactivity (PSR sort gate),high polyreactivity
QVQLVETGGGLVQAGGSLRLSCAASGSTFSRNAMGWYRQAPGKEREFVAAISWSGSSTYYADSVKGRFTISRDNEKNTVYLQMNSLKPEDTAVYYCAARETWYPYYWMGYWGQGAQVTVSS,polyreactivity (PSR sort gate),high polyreactivity
QVQLVETGGGLVQAGGSLRLSCAASGSTFWRNSMGWYRHAPGKEREFVASISWSGGGTYYADSVKGRFTISRDNAKNTVYLQMNILKPEDTAVYYCAATPYWSYWYGNGDYDYWGQGTQVTVSS,polyreactivity (PSR sort gate),low polyreactivity
QVQLVETGGGLVQAGGSLRLSCAASGSTFYNYAMGWYRQAPGKEREFVAAISWGGGSTRYADSVKGRFTISRDYAKNTVYLQMNSLKPEDTAVYYCAARYPHYDYYYWGQGTQVTVSS,polyreactivity (PSR sort gate),high polyreactivity
QVQLVETGGGLVQAGGSLRLSCAASRSIFLYYAMGWYRQAPGKERELVAAISYSGSGTYADSVKGRFTISRDNAKNTVYLEMNSLKPEDTAVYYCNVDYGSYSYDYWGQGTQVTVSS,polyreactivity (PSR sort gate),low polyreactivity
QVQLVETGGGLVQAGGSLRLSCADSGSICEQYTMGWYRQAPGKERELVAGSSSGGITNYADSVKGRFTISRDNAKNTVYLQMNSLKPEDTAVYYCAADNWYLAEYDYWGEGTQVTVSS,polyreactivity (PSR sort gate),low polyreactivity
QVQLVETGGGLVQAGGSLRLSCAPSGLSIGYYAMGWYRQAPGKEREFVAAITWNGGSTYADSVKGLFTISRDNAKNTVYLQMNSLKPEDTAVYYCAADLSYWDDFDYWGQGTQVTVSS,polyreactivity (PSR sort gate),low polyreactivity
QVQLVETGGGLVQAGGSLRLSCAPSGRIFTYYGMGWYRQPPGKERELVAAITRSGGSTRYADSVKGRFTISRDNAKNTVYLQMNSLKPEDTAVYYCNAGGYWRYDYWGQGTQVTVSS,polyreactivity (PSR sort gate),high polyreactivity
QVQLVETGGGLVQAGGSLRLSCAPSGRILYGYAMGWYRQAPGKERELVASITWSGGSTYADSVKGRFTISRDNAKNTVYLQMNSLKPEDTAVYFCATRRGPKWQWLTYGYWGQGTQVTVSS,polyreactivity (PSR sort gate),low polyreactivity
QVQLVETGGGLVQAGGSLRLSCAPSGSIYYINAMGWYRQAPGKERELVAAIRSGGSTNYADSVKGLFTISRDNAKNTVYLQMNSLKPEDTAVYYCNARSRSYVPYYYWGQGTQVTVSS,polyreactivity (PSR sort gate),high polyreactivity
QVQLVETGGGLVQAGGSLRLSSAASGFIFGTYTMGWYRQAPGKERELVAAISTSSGSTYYADSVKGRFTISRDNAKNTVYLQMNSLKPEDTAVYYCAAPTRSYGTPPYDYWGQGTQVTVSS,polyreactivity (PSR sort gate),low polyreactivity
QVQLVETGGGLVQAGGSLRLSSAASGSTFAWYAMGWYRQAPGKEREFVAAIDQDDDSTYYADSVKGRFTISRDNAKNTVYLQMKSLKPEDTAVYYCAASSPWEQSNDQFYYWGQGTQVTVSS,polyreactivity (PSR sort gate),low polyreactivity
QVQLVETGGGLVQAGGSLRVSCAASGRTFVGNAMGWYRQPPGKERELVAAISYSGDDTYYADSVKGRFTISRDNAKNTVYLQMNSLKPVDTAVYYCAAEWTAENAGIVLELEYWGQGTQVTVSS,polyreactivity (PSR sort gate),high polyreactivity
QVQLVETGGGLVQAGGTLRLSCAASGRIFLTNAMGWYRQAPGKERELVATITASGGTTYYADSVKGRFTISRDNAKITVYLQMNSLKPDDTAVYYCAKRYYLRGFGRYYYCGQGTQVTVSS,polyreactivity (PSR sort gate),high polyreactivity
